Measured values reported in the supplement of paper PMC7125110.
± gives the standard error. Variants at the floor of the assay were thinned out.

B1: glmS ribozyme (parent)
chain: AUAAAAGCGCCAGAACUACAGAAAUGUAGUUGACGAGGAGGAGGUUUAUCGAAUUUUCGGCGGAUGCCUCCAAA

Variants of: B1
Assay: self-cleavage kobs at 2500 uM GlcN6P; higher = faster cleavage; RNA array
Conditions: with glucosamine-6-phosphate
Method in brief: (§1)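 Ribozyme variants carrying barcodes were transcribed in situ on sequenced MiSeq chips by E. coli RNA polymerase and tracked at 37 °C with a hybridised Cy3 probe. They were exposed to 40 μM to 10 mM glucosamine-6-phosphate in HEPES/KCl/Mg(OAc)2 buffer. kobs came from exponential decay fits of normalised per-tile medians, and kcat and KM from weighted Michaelis–Menten fits.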

Variant	self-cleavage kobs at 2500 uM GlcN6P [s⁻¹]
A12U C16A U46C	0.000144 ± 4.6e-05
G37A G38A A39C	< 1e-05
C16U U30C G32U G35U U47G	< 1e-05
G41C U47C C61G C67U	< 1e-05
A15U U46C C70G	8.21e-05 ± 2.2e-05
A6C C34U C50G	0.000502 ± 0.00022
G7C G29A A36U C71A	< 1e-05
U45C A52U C68U	< 1e-05
G7C C16U G29U C61U	< 1e-05
G29C A52G C67U	7.8e-05 ± 2.1e-05
G38C A48U U57C C67U	< 1e-05
G13U G35U U54A	< 1e-05
G35A G41A U54G	< 1e-05
G44U C50G U56G	< 1e-05
U47G U57C C68A	8.58e-05 ± 3.6e-05
C34U G40C U56A G63A	< 1e-05
U46G G66A C70A	0.00045 ± 0.00016
G51C G59A C71U	< 1e-05
U30C C34G G44C U57G C70U	< 1e-05
G41C G51C U56A G62A	< 1e-05
G41C U49A U65A	< 1e-05
A14C G21U G26U A36C	< 1e-05
U31G C68G C70G	< 1e-05
U31C C34A G37C	< 1e-05
A15U G41U A42G U57C C70A	7.37e-05 ± 2.1e-05

Variant	self-cleavage kobs at 2500 uM GlcN6P [s⁻¹]
C10U A36U G40U	< 1e-05
G9U A33G A53C	< 1e-05
A14G G44U U56A	0.000881 ± 0.00031
A12U G44C A53U	6.46e-05 ± 1.9e-05
G44U U57A C71A	< 1e-05
A6C A14C G32A G38U	< 1e-05
A14U A48U U54G G60C U69A C71U	4.74e-05 ± 1.9e-05
A15G U46G G51C U55C G59A G63U	< 1e-05
C11A A52G C70U	8.24e-05 ± 3.2e-05
U30C G63A U69G	8.06e-05 ± 3.9e-05
C8G G29C G38C U57C	< 1e-05
C8A U46G U55A	< 1e-05
C11U A48C G62U	< 1e-05
G43A A53U U56G G62U	< 1e-05
G63C G66U C71A	< 1e-05
A12G A33C G37C G40C	< 1e-05
A6G G38A G40A G60C	< 1e-05
G9C G37C A42U G43C C50U C67G C71A	< 1e-05
A42C U56G U65C C71U	< 1e-05
A42C U46A U56A	< 1e-05
A14U G32C C67A	3.21e-05 ± 1.6e-05
A14C A42G G43U C70A	< 1e-05
U45A U46A A52U	8.04e-05 ± 3.5e-05
G29C G44C C50U G66U	< 1e-05
A15G A64C C71U	7.46e-05 ± 1.9e-05

Variant	self-cleavage kobs at 2500 uM GlcN6P [s⁻¹]
A14U U47G C68U	0.000197 ± 3.4e-05
A14C G32U U47C C67G	< 1e-05
G9U C11U A33G G40U U69G	< 1e-05
G13C C34G U49C C71A	< 1e-05
A14G U55G U69A	0.000475 ± 8.8e-05
A12G A52G G60C U65G	< 1e-05
C34G G51U U56C C67U	< 1e-05
A33C A53C C61G	< 1e-05
G37A G44A U56C C71A	< 1e-05
G38C U57G G59A A64G	< 1e-05
A36U G44C U46G	< 1e-05
A12U A14U A33C C50U	< 1e-05
G35C G37A U49A A52G A53U U56G C61G	< 1e-05
C16G G40C U45G	6.01e-05 ± 2.1e-05
C16U G37U A42G G51U	< 1e-05
A15G G29A A36G	< 1e-05
A15C U31C U45A G59U U65A	< 1e-05
C8G C10U C11U G13A C34G	< 1e-05
A14G C16U A36G	4.05e-05 ± 1.5e-05
A12U U54A G60C U65A	< 1e-05
U57C G66A	4.71e-05 ± 1.3e-05
A15C G37A A39G	0.000365 ± 0.00012
A14U U30G U31C A53U	0.00047 ± 0.00013
A12C C16U A36C	< 1e-05
U30C G44A G66U	< 1e-05

Variants of: B1
Assay: self-cleavage kobs at 10000 uM GlcN6P; higher = faster cleavage; RNA array
Conditions: with glucosamine-6-phosphate
Method in brief: as §1

Variant	self-cleavage kobs at 10000 uM GlcN6P [s⁻¹]
A12U C16A U46C	0.000331 ± 7.6e-05
A15U U46C C70G	3.23e-05 ± 1.5e-05
G41C U49A U65A	< 1e-05
C8A U46G U55A	< 1e-05
A6G G38A G40A G60C	< 1e-05
A14U G32C C67A	8.69e-05 ± 2.8e-05
G9U C11U A33G G40U U69G	< 1e-05
A14G U55G U69A	0.000104 ± 2.4e-05
G35C G37A U49A A52G A53U U56G C61G	< 1e-05
A15G G29A A36G	< 1e-05
A15C U31C U45A G59U U65A	< 1e-05
C8G C10U C11U G13A C34G	< 1e-05
U57C G66A	0.000102 ± 1.5e-05
